Patent US9386938B2, “Methods for collagen imaging” (Collagen Medical, LLC, priority 2005, dated 2016)
Each block holds one compound with its values, some of them ahead of it. Bridge positions count the residues as written; N and C are the ends. Square brackets hold non-standard residues; d marks the D form. Ends that are not written are not given here. Glu‑DTPA‑Gd = N-terminal Glu-DTPA-Gd chelate (gadolinium DTPA complex on glutamic acid); bb‑DTPA gadolinium tetramer diacid = not defined here; AEEA = NCCOCCOCC(=O)O

Legend:
human collagen type I = molecular target: T1, human collagen type I (Homo sapiens, UniProt P02452+P08123); test: Dried collagen assay (DCA), percent bound to dried human collagen; format: binding
T1 construct: Acid soluble human collagen extracted from placenta; purchased Sigma C7774; host or cells: human placenta (tissue extract)

rat collagen type I = molecular target: T2, rat collagen type I (Rattus norvegicus, UniProt P02454+P02466); test: Dried collagen assay (DCA), percent bound to dried rat collagen; format: binding
T2 construct: Rat collagen (acid soluble, type I, rat tail); purchased Upstate USA, Inc 08-115; host or cells: rat tail (tissue extract)

[1] = tested on: perfused Langendorff rat heart; test: Equilibrium binding to perfused Langendorff rat heart
Experimental: (§1) After deep anesthesia with pentobarbital (80 mg/kg ip), the chest cavity of a male Sprague Dawley rat (300 g) was opened, retracted and the heart was removed immediately and placed in an ice-cold normal Krebs-Henseleit (K-H) solution (NaCl, 118 mM; KCl, 4.7 mM; CaCl2, 2.5 mM; MgSO4, 1.2 mM; KH2PO4, 1.2 mM; NaHCO3, 25 mM; glucose, 5.5 mM). A K-H buffer filled 20 Gauge needle was inserted into the apex of the heart penetrating into the bottom of the chamber. This was attached to a pressure transducer used to record and monitor heart function. Perfusion pressure (˜60 mmHg) was monitored using a second transducer. The heart was perfused at a constant flow rate of 10-12 mL/min with 37° C. Krebs-Henseleit buffer saturated with a mixture of 95% O2 and 5% CO2 gas. The heart was paced at 300 beats/min.
Two peptide test articles, a high collagen binding peptide (SEQ ID NO: 144) and a low collagen binding peptide (SEQ ID NO: 173), are compared to GdDTPA. The appropriate test article was added to the K-H buffer solution to a total concentration of either 3 or 30 μM. Also added to the K-H buffer was a radiotracer analog of each peptide or GdDTPA. For the peptides, the radiotracer was an aliquot of the appropriate 1-125 labeled peptide derivative (see Example 5 for protocol). For GdDTPA, the tracer added was Tc-99m labeled DTPA. The amount of radioactivity added to the buffer solution was 1-5 μCi.
The heart was perfused for a period of 10 minutes and the perfusion solution was recycled through the heart. The total volume of K-H buffer used was 50-60 mL. After 10 min, the heart was removed from the apparatus and any connective tissue was removed. The heart was opened, fluid in the chambers drained, and the interior blotted dry with filter paper. The heart was then weighed and the radioactivity in the heart measured with a Packard Cobra 5003 Gamma Scintillation counter. An aliquot of the K-H buffer was also weighed and counted. Studies were performed at least in duplicate.
The dual peptide gadolinium tetramer (Compound ID 803) was compared to GdDTPA. Compound ID 803 and GdDTPA were added to the K-H buffer solution to a total concentration of 3 μM. Also added to the K-H buffer was a radiotracer analog of Compound ID 803 or GdDTPA. For Compound ID 803, the radiotracer was an aliquot of the In-111 labeled compound. For GdDTPA, the tracer added was Tc-99m labeled DTPA. The amount of radioactivity added to the buffer solution was 1-5 μCi.

[2] = tested on: perfused Langendorff rat heart; test: Washout kinetics from perfused Langendorff rat heart; conditions: perfusion with buffer for 10 minutes
Experimental: as §1
A Langendorff rat heart preparation was perfused with K-H buffer at a rate of 10-12 mL/min. A one mL solution containing SEQ ID NO: 144 (300 μM), radiolabeled (I-125) SEQ ID NO: 144 (1-6 μCi), GdDTPA (300 μM), and radiolabeled (Tc-99m) DTPA (5-8 μCi) was infused into the heart at a rate of 1 mL/min. After the infusion was finished, the heart was either removed or perfusion was allowed to continue for an additional 10 minutes and then the heart was removed. The perfusion buffer was not recirculated through the heart. After removal of any connective tissue, the heart was opened, fluid in the chambers drained, and the interior blotted dry with filter paper. The heart was then weighed and the radioactivity in the heart measured with a Packard Cobra 5003 Gamma Scintillation counter. […] An aliquot of the K-H buffer was also weighed and counted. Concentration estimates were decay corrected. Studies were performed at least in duplicate.
A Langendorff rat heart preparation was perfused with K-H buffer at a rate of 10-12 mL/min. […] The heart was then weighed and the radioactivity in the heart measured with a Packard Cobra 5003 Gamma Scintillation counter. […] An aliquot of the K-H buffer was also weighed and counted. […]

[3] = Table 14, TN-6 peptides, D-amino acid scanning
[4] = Table 15, TN-10 peptides with -G- linker, D-amino acid scanning
[5] = Table 2, TN-8 peptides, 5 μM peptide, PBS pH 7.4
[6] = Table 4, TN-10 peptides, 5 μM peptide, PBS pH 7.4
[7] = Table 13, TN-10 peptides with -G- linker, alanine scanning

T2 sequence (P02454 152-1207 limits assumed): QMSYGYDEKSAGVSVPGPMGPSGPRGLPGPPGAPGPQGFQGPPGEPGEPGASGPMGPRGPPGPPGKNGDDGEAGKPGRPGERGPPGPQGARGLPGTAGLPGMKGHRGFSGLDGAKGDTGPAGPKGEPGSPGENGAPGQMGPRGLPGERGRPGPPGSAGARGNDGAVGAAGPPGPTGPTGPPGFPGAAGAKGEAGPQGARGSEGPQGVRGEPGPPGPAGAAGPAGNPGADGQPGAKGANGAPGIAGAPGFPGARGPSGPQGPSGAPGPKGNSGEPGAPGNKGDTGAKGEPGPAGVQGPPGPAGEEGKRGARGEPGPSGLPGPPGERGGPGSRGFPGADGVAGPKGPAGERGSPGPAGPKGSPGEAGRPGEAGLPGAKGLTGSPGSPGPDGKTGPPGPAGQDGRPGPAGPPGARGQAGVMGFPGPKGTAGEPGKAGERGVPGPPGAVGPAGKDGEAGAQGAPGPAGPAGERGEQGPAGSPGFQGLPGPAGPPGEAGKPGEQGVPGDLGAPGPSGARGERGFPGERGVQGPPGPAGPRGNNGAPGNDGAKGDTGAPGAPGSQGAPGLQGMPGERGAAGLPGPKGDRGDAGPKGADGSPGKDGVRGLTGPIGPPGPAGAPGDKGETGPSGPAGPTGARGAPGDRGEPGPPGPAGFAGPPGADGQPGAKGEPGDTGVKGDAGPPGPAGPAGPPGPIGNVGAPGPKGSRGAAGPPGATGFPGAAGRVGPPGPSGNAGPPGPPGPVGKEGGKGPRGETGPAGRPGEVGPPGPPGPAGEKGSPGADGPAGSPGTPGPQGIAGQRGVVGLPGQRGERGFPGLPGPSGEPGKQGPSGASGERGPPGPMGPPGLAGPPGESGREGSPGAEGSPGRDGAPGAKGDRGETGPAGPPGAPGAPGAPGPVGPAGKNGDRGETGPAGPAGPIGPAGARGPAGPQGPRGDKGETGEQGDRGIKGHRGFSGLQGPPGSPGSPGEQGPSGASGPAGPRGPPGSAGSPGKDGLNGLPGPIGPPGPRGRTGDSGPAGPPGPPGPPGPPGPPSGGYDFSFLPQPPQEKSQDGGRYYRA
T2 sequence (P02466 86-1125 limits assumed): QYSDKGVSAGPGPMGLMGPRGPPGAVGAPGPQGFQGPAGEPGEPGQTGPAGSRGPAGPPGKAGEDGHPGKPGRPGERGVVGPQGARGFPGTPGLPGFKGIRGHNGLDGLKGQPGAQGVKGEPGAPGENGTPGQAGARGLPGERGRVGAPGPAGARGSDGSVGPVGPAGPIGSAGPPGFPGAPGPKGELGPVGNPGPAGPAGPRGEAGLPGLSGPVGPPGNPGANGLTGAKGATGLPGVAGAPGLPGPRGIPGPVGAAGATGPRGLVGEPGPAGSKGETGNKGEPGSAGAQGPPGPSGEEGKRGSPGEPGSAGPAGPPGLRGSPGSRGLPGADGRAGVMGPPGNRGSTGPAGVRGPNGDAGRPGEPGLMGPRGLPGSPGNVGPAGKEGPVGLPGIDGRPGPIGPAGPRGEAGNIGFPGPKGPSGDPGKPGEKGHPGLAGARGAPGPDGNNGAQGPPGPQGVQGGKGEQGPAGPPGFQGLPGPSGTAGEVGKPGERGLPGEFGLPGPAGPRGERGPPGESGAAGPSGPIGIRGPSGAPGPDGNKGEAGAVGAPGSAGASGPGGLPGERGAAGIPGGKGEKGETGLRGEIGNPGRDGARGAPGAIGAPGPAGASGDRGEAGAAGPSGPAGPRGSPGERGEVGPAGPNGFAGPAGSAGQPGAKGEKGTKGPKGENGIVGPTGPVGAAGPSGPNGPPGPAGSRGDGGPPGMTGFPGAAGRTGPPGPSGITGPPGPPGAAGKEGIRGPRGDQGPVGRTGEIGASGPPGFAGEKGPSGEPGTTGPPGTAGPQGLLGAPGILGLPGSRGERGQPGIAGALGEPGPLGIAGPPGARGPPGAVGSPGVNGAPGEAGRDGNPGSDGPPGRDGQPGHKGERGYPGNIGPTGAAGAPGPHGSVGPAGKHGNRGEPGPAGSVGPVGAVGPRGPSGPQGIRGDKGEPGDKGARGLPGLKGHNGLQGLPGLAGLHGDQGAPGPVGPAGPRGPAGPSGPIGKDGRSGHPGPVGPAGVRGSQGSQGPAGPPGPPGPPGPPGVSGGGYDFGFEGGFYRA
T1 sequence (P02452 162-1218 limits assumed): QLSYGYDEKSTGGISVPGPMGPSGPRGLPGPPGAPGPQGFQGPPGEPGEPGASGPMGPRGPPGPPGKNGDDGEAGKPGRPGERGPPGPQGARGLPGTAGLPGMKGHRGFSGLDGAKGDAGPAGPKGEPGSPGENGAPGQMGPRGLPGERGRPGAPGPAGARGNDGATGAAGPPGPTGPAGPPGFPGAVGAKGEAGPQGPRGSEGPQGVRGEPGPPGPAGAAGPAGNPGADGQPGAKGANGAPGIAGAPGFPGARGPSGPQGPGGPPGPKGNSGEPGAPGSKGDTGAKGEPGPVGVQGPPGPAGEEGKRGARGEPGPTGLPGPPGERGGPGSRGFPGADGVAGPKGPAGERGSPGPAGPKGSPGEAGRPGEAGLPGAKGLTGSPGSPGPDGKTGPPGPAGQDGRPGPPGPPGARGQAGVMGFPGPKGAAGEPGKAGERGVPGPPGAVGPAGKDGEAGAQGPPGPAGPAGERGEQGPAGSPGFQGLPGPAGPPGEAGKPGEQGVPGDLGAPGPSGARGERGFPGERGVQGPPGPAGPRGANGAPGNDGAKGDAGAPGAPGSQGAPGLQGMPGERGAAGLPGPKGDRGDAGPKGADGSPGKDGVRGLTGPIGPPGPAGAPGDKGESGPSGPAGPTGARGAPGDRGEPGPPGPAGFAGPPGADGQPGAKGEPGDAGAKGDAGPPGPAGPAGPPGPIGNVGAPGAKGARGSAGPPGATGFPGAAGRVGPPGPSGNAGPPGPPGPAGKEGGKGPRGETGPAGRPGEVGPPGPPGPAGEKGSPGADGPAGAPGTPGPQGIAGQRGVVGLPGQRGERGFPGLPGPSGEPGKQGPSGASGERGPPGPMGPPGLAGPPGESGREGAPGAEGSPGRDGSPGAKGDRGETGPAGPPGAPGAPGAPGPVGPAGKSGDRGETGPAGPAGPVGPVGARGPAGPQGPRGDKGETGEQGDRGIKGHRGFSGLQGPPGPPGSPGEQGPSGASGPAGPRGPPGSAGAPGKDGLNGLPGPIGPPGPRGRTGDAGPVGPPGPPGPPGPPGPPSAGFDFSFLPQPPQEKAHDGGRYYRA
T1 sequence (P08123 80-1119 limits assumed): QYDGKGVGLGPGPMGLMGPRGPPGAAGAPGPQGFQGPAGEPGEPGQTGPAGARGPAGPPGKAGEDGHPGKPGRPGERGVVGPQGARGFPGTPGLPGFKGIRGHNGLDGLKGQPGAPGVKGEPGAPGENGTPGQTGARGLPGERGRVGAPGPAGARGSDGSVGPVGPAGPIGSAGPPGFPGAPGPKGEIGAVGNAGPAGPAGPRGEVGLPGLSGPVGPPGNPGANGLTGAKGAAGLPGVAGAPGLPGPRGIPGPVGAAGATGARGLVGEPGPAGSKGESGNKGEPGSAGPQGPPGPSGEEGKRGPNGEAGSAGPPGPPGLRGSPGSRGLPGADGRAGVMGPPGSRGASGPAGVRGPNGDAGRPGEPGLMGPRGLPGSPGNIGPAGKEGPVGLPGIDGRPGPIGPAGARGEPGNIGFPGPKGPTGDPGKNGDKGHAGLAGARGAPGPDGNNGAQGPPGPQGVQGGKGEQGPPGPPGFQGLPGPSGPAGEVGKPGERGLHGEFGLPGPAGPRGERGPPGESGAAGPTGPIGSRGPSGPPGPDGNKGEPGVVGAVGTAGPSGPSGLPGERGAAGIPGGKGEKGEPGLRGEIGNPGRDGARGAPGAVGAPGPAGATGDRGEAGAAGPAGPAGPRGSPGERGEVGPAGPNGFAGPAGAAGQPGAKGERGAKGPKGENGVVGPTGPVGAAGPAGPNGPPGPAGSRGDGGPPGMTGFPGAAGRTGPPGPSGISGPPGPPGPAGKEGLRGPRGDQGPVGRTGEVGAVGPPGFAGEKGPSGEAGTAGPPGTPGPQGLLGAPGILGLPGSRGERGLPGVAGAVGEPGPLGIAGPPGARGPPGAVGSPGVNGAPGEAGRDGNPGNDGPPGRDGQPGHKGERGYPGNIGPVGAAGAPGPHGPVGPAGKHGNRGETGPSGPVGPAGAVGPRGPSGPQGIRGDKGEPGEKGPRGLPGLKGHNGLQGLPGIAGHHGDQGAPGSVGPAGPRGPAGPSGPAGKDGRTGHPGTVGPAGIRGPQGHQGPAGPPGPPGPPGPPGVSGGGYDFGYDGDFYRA

% Collagen Binding Dried Rat (rat collagen type I; [4]): 4%
% Collagen Binding Dried Human (human collagen type I; [4]): 5%
Compound: 173 (QWTCSGDEYTWHCNYE) [compound 173]

Dried Human Collagen Binding (human collagen type I; Table 11, TN-11 peptides): 32%
Compound: 130 (WWACQKGRHDWEKCRWL; disulfide 4-14 (inferred); not fully specified (C-terminus)) [compound 130]

% Collagen Binding Dried Rat (rat collagen type I; [4]): 2%
% Collagen Binding Dried Human (human collagen type I; [4]): 3%
Compound: 168 (QWTCSGDEYTWHCNYE) [compound 168]

% Binding Collagen I Rat (rat collagen type I; Table 17, chelate conjugates): 5%
Compound: 190 ({Glu‑DTPA‑Gd-AEEA}-GQWTCSGDEYTWHCNY[dE]-NH2; disulfide 5-14 (inferred); also: gadolinium complex of Glu-DTPA) [compound 190]

% Collagen Binding Dried Human (human collagen type I; [4]): 5%
Compound: 174 (QWTCSGDEYTWHCNYE) [compound 174]

% Collagen Binding Dried Rat (rat collagen type I; Table 12, TN-6 peptides, alanine scanning): 7%
Compound: 137 (YHACYQAGCWAW; disulfide 4-9 (inferred); not fully specified (C-terminus)) [compound 137]

Dried Human Collagen Binding (human collagen type I; [5]): 2%
Compound: 3 (PWWCHEMPSMCFGF) [compound 3]

Dried Human Collagen Binding (human collagen type I; [6]): 7%
Compound: 37 (LWNCHGTDANWKCVLN) [compound 37]

Dried Human Collagen Binding (human collagen type I; [5]): 14%
Compound: 2 (WGWCEWAQNNCWNY) [compound 2]

Dried Human Collagen Binding (human collagen type I; [6]): 6%
Compound: 38 (GWSCHGDAADWPCQWS) [compound 38]

heart uptake relative to GdDTPA ([1]; 10 minutes): about 7 times
Compound: Compound ID 803: dual peptide gadolinium tetramer; bb-DTPA tetramer diacid coupled to N-terminus of SEQ ID NO. 264 peptide ({bb‑DTPA gadolinium tetramer diacid}-GQWHCTTSFPHHYCLYG; disulfide 5-14 (inferred); not fully specified (C-terminus); printed as G-Q-W-H-C-T-T-S-F-P-H-H-Y-C-L-Y-G; reading uncertain; also: dual peptide tetramer: two peptide chains on one diacid, Gd chelated) [dual peptide gadolinium tetramer; 264 peptide]
amount remaining in heart at 10 minutes after infusion relative to 0 minutes post infusion [2]: 54%

% Collagen Binding Dried Human (human collagen type I; [7]): 5%
Compound: 147 (QWTCSGDEYTAHCNYE; disulfide 4-13 (inferred); not fully specified (C-terminus)) [compound 147]

Dried Human Collagen Binding (human collagen type I; Table 8, TN-9 peptides): 9%
Compound: 112 (AKACSVHDEFGCLIS; disulfide 4-12 (inferred); not fully specified (C-terminus)) [compound 112]

Dried Human Collagen Binding (human collagen type I; [6]): 7%
Compound: 65 (KWECVHTKGEWYCETK) [compound 65]

Continued, compound first:

Compound: 159 (YHACYQAGCWIW) [compound 159]
% Collagen Binding Dried Human (human collagen type I; [3]): 7%

Compound: 113 (FSECVWVNAYQCEYF; disulfide 4-12 (inferred); not fully specified (C-terminus)) [compound 113]
Dried Human Collagen Binding (human collagen type I; Table 8, TN-9 peptides): 3%

Compound: 175 (QWTCSGDEYTWHCNYE) [compound 175]
% Collagen Binding Dried Rat (rat collagen type I; [4]): 2%
% Collagen Binding Dried Human (human collagen type I; [4]): 2%

Compound: 176 (QWTCSGDEYTWHCNYE) [compound 176]
% Collagen Binding Dried Rat (rat collagen type I; [4]): 2%
% Collagen Binding Dried Human (human collagen type I; [4]): 2%

Compound: 169 (QWTCSGDEYTWHCNYE) [compound 169]
% Collagen Binding Dried Rat (rat collagen type I; [4]): 4%

Compound: CC(C)C[C@H](NC(=O)[C@@H]1CSSC[C@H](NC(=O)[C@H](Cc2c[nH]cn2)NC(=O)[C@H](Cc2c[nH]c3ccccc23)NC(=O)[C@H](CCC(N)=O)NC(=O)CNC(=O)CC[C@H](NC(=O)[C@H](CNC(=O)[C@@H](CN(CCN(CC(=O)O)CC(=O)O)CC(=O)O)N(CC(=O)O)CC(=O)O)NC(=O)[C@@H](CN(CCN(CC(=O)O)CC(=O)O)CC(=O)O)N(CC(=O)O)CC(=O)O)C(=O)NCCCCCCNC(=O)[C@H](CCC(=O)NCC(=O)N[C@@H](CCC(N)=O)C(=O)N[C@@H](Cc2c[nH]c3ccccc23)C(=O)N[C@@H](Cc2c[nH]cn2)C(=O)N[C@H]2CSSC[C@@H](C(=O)N[C@@H](CC(C)C)C(=O)N[C@@H](Cc3ccc(O)cc3)C(=O)NCC(N)=O)NC(=O)[C@H](Cc3ccc(O)cc3)NC(=O)[C@H](Cc3c[nH]cn3)NC(=O)[C@H](Cc3c[nH]cn3)NC(=O)[C@@H]3CCCN3C(=O)[C@H](Cc3ccccc3)NC(=O)[C@H](CO)NC(=O)[C@H]([C@@H](C)O)NC(=O)[C@H]([C@@H](C)O)NC2=O)NC(=O)[C@H](CNC(=O)[C@@H](CN(CCN(CC(=O)O)CC(=O)O)CC(=O)O)N(CC(=O)O)CC(=O)O)NC(=O)[C@@H](CN(CCN(CC(=O)O)CC(=O)O)CC(=O)O)N(CC(=O)O)CC(=O)O)C(=O)N[C@@H]([C@@H](C)O)C(=O)N[C@@H]([C@@H](C)O)C(=O)N[C@@H](CO)C(=O)N[C@@H](Cc2ccccc2)C(=O)N2CCC[C@H]2C(=O)N[C@@H](Cc2c[nH]cn2)C(=O)N[C@@H](Cc2c[nH]cn2)C(=O)N[C@@H](Cc2ccc(O)cc2)C(=O)N1)C(=O)N[C@@H](Cc1ccc(O)cc1)C(=O)NCC(N)=O [Comp ID 803]
Heart ([1]; 10 min recirculating perfusion, 3 μM in K-H buffer, radiotracer counting): 9.1 ± 1.8 nmol/g
Heart:Buffer ([1]; 10 min recirculating perfusion, buffer 3.0 μM): 3.02 ± 0.62

Compound: 166 (QWTCSGDEYTWHCNYE) [compound 166]
% Collagen Binding Dried Rat (rat collagen type I; [4]): 3%
% Collagen Binding Dried Human (human collagen type I; [4]): 2%

Compound: 163 (YHACYQAGCWIW) [compound 163]
% Collagen Binding Dried Rat (rat collagen type I; [3]): 53%

Compound: 171 (QWTCSGDEYTWHCNYE) [compound 171]
% Collagen Binding Dried Rat (rat collagen type I; [4]): 6%

Compound: 36 (SWSCGGDHNAWKCQYS) [compound 36]
Dried Human Collagen Binding (human collagen type I; [6]): 7%

Compound: 167 (QWTCSGDEYTWHCNYE) [compound 167]
% Collagen Binding Dried Human (human collagen type I; [4]): 4%

Compound: 39 (GWQCSGDASVWNCDWI) [compound 39]
Dried Human Collagen Binding (human collagen type I; [6]): 6%

Compound: 142 (QWTCSADEYTWHCNYE; disulfide 4-13 (inferred); not fully specified (C-terminus)) [compound 142]
% Collagen Binding Dried Rat (rat collagen type I; [7]): 6%

Compound: 165 (QWTCSGDEYTWHCNYE) [compound 165]
% Collagen Binding Dried Rat (rat collagen type I; [4]): 4%
% Collagen Binding Dried Human (human collagen type I; [4]): 2%
